# Results reported in publication PMC3507856, “Two glutamic acid residues in the DNA-binding domain are engaged in the release of STAT1 dimers from DNA” (BMC Cell Biology, 2012).
# Several values for one entry are separate records, joined by “and”; a condition that tells them apart may be missing. Equal entries are not always repeated.
# B1: STAT1-WT-GFP (wild-type human STAT1 fused to green fluorescent protein) (natural protein, UniProt P42224 1-746, looked up)
# chain: MSQWYELQQLDSKFLEQVHQLYDDSFPMEIRQYLAQWLEKQDWEHAANDVSFATIRFHDLLSQLDDQYSRFSLENNFLLQHNIRKSKRNLQDNFQEDPIQMSMIIYSCLKEERKILENAQRFNQAQSGNIQSTVMLDKQKELDSKVRNVKDKVMCIEHEIKSLEDLQDEYDFKCKTLQNREHETNGVAKSDQKQEQLLLKKMYLMLDNKRKEVVHKIIELLNVTELTQNALINDELVEWKRRQQSACIGGPPNACLDQLQNWFTIVAESLQQVRQQLKKLEELEQKYTYEHDPITKNKQVLWDRTFSLFQQLIQSSFVVERQPCMPTHPQRPLVLKTGVQFTVKLRLLVKLQELNYNLKVKVLFDKDVNERNTVKGFRKFNILGTHTKVMNMEESTNGSLAAEFRHLQLKEQKNAGTRTNEGPLIVTEELHSLSFETQLCQPGLVIDLETTSLPVVVISNVSQLPSGWASILWYNMLVAEPRNLSFFLTPPCARWAQLSEVLSWQFSSVTKRGLNVDQLNMLGEKLLGPNASPDGLIPWTRFCKENINDKNFPFWLWIESILELIKKHLLPLWNDGCIMGFISKERERALLKDQQPGTFLLRFSESSREGAITFTWVERSQNGGEPDFHAVEPYTKKELSAVTFPDIIRNYKVMAAENIPENPLKYLYPNIDKDHAFGKYYSRPKEAPEPMELDGPKGTGYIKTELISVSEVHPSRLQTTDNLLPMSPEEFDEVSRIVGSVEFDSM
# modifications: tyrosine-phosphorylated (phospho-Tyr701) after stimulation of cells with IFNγ
# notes: also called STAT1-GFP; GFP-tagged wild-type STAT1; source: HeLa cells, transfected (pEGFP-N1-STAT1), IFNγ-stimulated, in whole cell lysate; not shown: GFP, C-terminal, kept
# B2: wild-type STAT1 expressed in STAT1-negative U3A cells (natural protein, human, UniProt P42224 1-746, looked up)
# chain: MSQWYELQQLDSKFLEQVHQLYDDSFPMEIRQYLAQWLEKQDWEHAANDVSFATIRFHDLLSQLDDQYSRFSLENNFLLQHNIRKSKRNLQDNFQEDPIQMSMIIYSCLKEERKILENAQRFNQAQSGNIQSTVMLDKQKELDSKVRNVKDKVMCIEHEIKSLEDLQDEYDFKCKTLQNREHETNGVAKSDQKQEQLLLKKMYLMLDNKRKEVVHKIIELLNVTELTQNALINDELVEWKRRQQSACIGGPPNACLDQLQNWFTIVAESLQQVRQQLKKLEELEQKYTYEHDPITKNKQVLWDRTFSLFQQLIQSSFVVERQPCMPTHPQRPLVLKTGVQFTVKLRLLVKLQELNYNLKVKVLFDKDVNERNTVKGFRKFNILGTHTKVMNMEESTNGSLAAEFRHLQLKEQKNAGTRTNEGPLIVTEELHSLSFETQLCQPGLVIDLETTSLPVVVISNVSQLPSGWASILWYNMLVAEPRNLSFFLTPPCARWAQLSEVLSWQFSSVTKRGLNVDQLNMLGEKLLGPNASPDGLIPWTRFCKENINDKNFPFWLWIESILELIKKHLLPLWNDGCIMGFISKERERALLKDQQPGTFLLRFSESSREGAITFTWVERSQNGGEPDFHAVEPYTKKELSAVTFPDIIRNYKVMAAENIPENPLKYLYPNIDKDHAFGKYYSRPKEAPEPMELDGPKGTGYIKTELISVSEVHPSRLQTTDNLLPMSPEEFDEVSRIVGSVEFDSM
# modifications: tyrosine-phosphorylated after stimulation of cells with IFNγ
# notes: STAT1, human; also called STAT1-WT; source: U3A cells, transfected, IFNγ-stimulated, in cell extract
# B3: STAT1-E411A expressed in STAT1-negative U3A cells (natural protein, human, UniProt P42224 1-746, looked up)
# chain: MSQWYELQQLDSKFLEQVHQLYDDSFPMEIRQYLAQWLEKQDWEHAANDVSFATIRFHDLLSQLDDQYSRFSLENNFLLQHNIRKSKRNLQDNFQEDPIQMSMIIYSCLKEERKILENAQRFNQAQSGNIQSTVMLDKQKELDSKVRNVKDKVMCIEHEIKSLEDLQDEYDFKCKTLQNREHETNGVAKSDQKQEQLLLKKMYLMLDNKRKEVVHKIIELLNVTELTQNALINDELVEWKRRQQSACIGGPPNACLDQLQNWFTIVAESLQQVRQQLKKLEELEQKYTYEHDPITKNKQVLWDRTFSLFQQLIQSSFVVERQPCMPTHPQRPLVLKTGVQFTVKLRLLVKLQELNYNLKVKVLFDKDVNERNTVKGFRKFNILGTHTKVMNMEESTNGSLAAEFRHLQLKAQKNAGTRTNEGPLIVTEELHSLSFETQLCQPGLVIDLETTSLPVVVISNVSQLPSGWASILWYNMLVAEPRNLSFFLTPPCARWAQLSEVLSWQFSSVTKRGLNVDQLNMLGEKLLGPNASPDGLIPWTRFCKENINDKNFPFWLWIESILELIKKHLLPLWNDGCIMGFISKERERALLKDQQPGTFLLRFSESSREGAITFTWVERSQNGGEPDFHAVEPYTKKELSAVTFPDIIRNYKVMAAENIPENPLKYLYPNIDKDHAFGKYYSRPKEAPEPMELDGPKGTGYIKTELISVSEVHPSRLQTTDNLLPMSPEEFDEVSRIVGSVEFDSM
# modifications: tyrosine-phosphorylated after stimulation of cells with IFNγ
# notes: STAT1, human; glutamic acid 411 changed to alanine; also called E411A mutant; mutant STAT1; source: U3A cells, transfected, IFNγ-stimulated, in cell extract
# B4: STAT1-E411A-GFP (natural protein, human, UniProt P42224 1-746, looked up)
# chain: MSQWYELQQLDSKFLEQVHQLYDDSFPMEIRQYLAQWLEKQDWEHAANDVSFATIRFHDLLSQLDDQYSRFSLENNFLLQHNIRKSKRNLQDNFQEDPIQMSMIIYSCLKEERKILENAQRFNQAQSGNIQSTVMLDKQKELDSKVRNVKDKVMCIEHEIKSLEDLQDEYDFKCKTLQNREHETNGVAKSDQKQEQLLLKKMYLMLDNKRKEVVHKIIELLNVTELTQNALINDELVEWKRRQQSACIGGPPNACLDQLQNWFTIVAESLQQVRQQLKKLEELEQKYTYEHDPITKNKQVLWDRTFSLFQQLIQSSFVVERQPCMPTHPQRPLVLKTGVQFTVKLRLLVKLQELNYNLKVKVLFDKDVNERNTVKGFRKFNILGTHTKVMNMEESTNGSLAAEFRHLQLKAQKNAGTRTNEGPLIVTEELHSLSFETQLCQPGLVIDLETTSLPVVVISNVSQLPSGWASILWYNMLVAEPRNLSFFLTPPCARWAQLSEVLSWQFSSVTKRGLNVDQLNMLGEKLLGPNASPDGLIPWTRFCKENINDKNFPFWLWIESILELIKKHLLPLWNDGCIMGFISKERERALLKDQQPGTFLLRFSESSREGAITFTWVERSQNGGEPDFHAVEPYTKKELSAVTFPDIIRNYKVMAAENIPENPLKYLYPNIDKDHAFGKYYSRPKEAPEPMELDGPKGTGYIKTELISVSEVHPSRLQTTDNLLPMSPEEFDEVSRIVGSVEFDSM
# modifications: tyrosine-phosphorylated (phospho-Tyr701) after stimulation of cells with IFNγ
# notes: STAT1, human; also called E411 mutant; source: HeLa cells, transfected (pEGFP-N1-STAT1 with point mutation), IFNγ-stimulated, in whole cell lysate; not shown: GFP, C-terminal, kept
# B5: endogenous (native) STAT1 of HeLa cells, P42224 1-750 (natural protein)
# chain: MSQWYELQQLDSKFLEQVHQLYDDSFPMEIRQYLAQWLEKQDWEHAANDVSFATIRFHDLLSQLDDQYSRFSLENNFLLQHNIRKSKRNLQDNFQEDPIQMSMIIYSCLKEERKILENAQRFNQAQSGNIQSTVMLDKQKELDSKVRNVKDKVMCIEHEIKSLEDLQDEYDFKCKTLQNREHETNGVAKSDQKQEQLLLKKMYLMLDNKRKEVVHKIIELLNVTELTQNALINDELVEWKRRQQSACIGGPPNACLDQLQNWFTIVAESLQQVRQQLKKLEELEQKYTYEHDPITKNKQVLWDRTFSLFQQLIQSSFVVERQPCMPTHPQRPLVLKTGVQFTVKLRLLVKLQELNYNLKVKVLFDKDVNERNTVKGFRKFNILGTHTKVMNMEESTNGSLAAEFRHLQLKEQKNAGTRTNEGPLIVTEELHSLSFETQLCQPGLVIDLETTSLPVVVISNVSQLPSGWASILWYNMLVAEPRNLSFFLTPPCARWAQLSEVLSWQFSSVTKRGLNVDQLNMLGEKLLGPNASPDGLIPWTRFCKENINDKNFPFWLWIESILELIKKHLLPLWNDGCIMGFISKERERALLKDQQPGTFLLRFSESSREGAITFTWVERSQNGGEPDFHAVEPYTKKELSAVTFPDIIRNYKVMAAENIPENPLKYLYPNIDKDHAFGKYYSRPKEAPEPMELDGPKGTGYIKTELISVSEVHPSRLQTTDNLLPMSPEEFDEVSRIVGSVEFDSMMNTV
# modifications: here or on the partner: tyrosine-phosphorylated (phospho-Tyr701) after stimulation of cells with IFNγ; tyrosine-phosphorylated (phospho-Tyr701) after stimulation of cells with IFNγ
# How the values were obtained:
# [1] = biological target: the molecule itself; experiment: native gel or EMSA; whole cell lysates of HeLa cells (IFNγ 45 min, then staurosporine for the durations indicated) incubated in vitro with 32P-labelled M67 DNA (single high-affinity GAS site); STAT1 dimers seen as DNA-bound complexes on a 4% acrylamide gel at 4°C; homo- and heterodimers told apart by mobility
# [2] = biological target: the molecule itself; experiment: native gel or EMSA; extracts of IFNγ-stimulated U3A cells incubated in vitro with 32P-labelled DNA containing a tandem GAS site; unchallenged or challenged for 30 min with a 750-fold molar excess of a single unlabelled GAS site (M67); dimeric and tetrameric STAT1 seen as DNA-bound complexes
# [3] = biological target: T1, endogenous (native) STAT1 of HeLa cells (human (endogenous in HeLa)), P42224; experiment: native gel or EMSA; whole cell lysates of HeLa cells (IFNγ 45 min, then staurosporine for the durations indicated) incubated in vitro with 32P-labelled M67 DNA (single high-affinity GAS site); STAT1 dimers seen as DNA-bound complexes on a 4% acrylamide gel at 4°C; homo- and heterodimers told apart by mobility; conditions: remark: other sources report otherwise
# T1 chain: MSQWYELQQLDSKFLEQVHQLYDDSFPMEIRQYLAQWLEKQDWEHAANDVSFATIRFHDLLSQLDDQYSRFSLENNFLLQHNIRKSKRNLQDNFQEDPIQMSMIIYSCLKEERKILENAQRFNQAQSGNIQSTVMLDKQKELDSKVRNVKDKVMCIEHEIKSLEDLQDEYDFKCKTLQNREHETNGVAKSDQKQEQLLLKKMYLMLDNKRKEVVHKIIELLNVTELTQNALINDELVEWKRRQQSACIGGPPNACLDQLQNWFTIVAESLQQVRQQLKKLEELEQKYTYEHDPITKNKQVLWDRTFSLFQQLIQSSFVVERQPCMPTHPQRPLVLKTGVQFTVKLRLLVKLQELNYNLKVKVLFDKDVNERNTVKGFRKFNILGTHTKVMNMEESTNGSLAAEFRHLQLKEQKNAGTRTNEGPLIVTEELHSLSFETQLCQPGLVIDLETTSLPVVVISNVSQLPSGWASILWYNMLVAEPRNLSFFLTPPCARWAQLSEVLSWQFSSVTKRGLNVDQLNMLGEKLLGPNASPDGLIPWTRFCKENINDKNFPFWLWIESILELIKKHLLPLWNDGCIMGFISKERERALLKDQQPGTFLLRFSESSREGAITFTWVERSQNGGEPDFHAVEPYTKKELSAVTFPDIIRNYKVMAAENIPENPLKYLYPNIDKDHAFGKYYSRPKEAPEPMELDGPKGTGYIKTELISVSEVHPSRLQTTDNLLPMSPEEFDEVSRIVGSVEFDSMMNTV
Binder,stoichiometry N [1],stoichiometry N [2],further results
B1,2,–,–
B2,–,2 and 4,–
B3,–,2 and 4,–
B4,2,–,–
B5,–,–,stoichiometry N [3]: 2
